For data set [1], the target named is p120 catenin expressed from a transfected plasmid (exogenous p120, HA-tagged in Example 1).
The target in data set [2] is Flag-tagged Abi-1 expressed from pCMV-Flag-Abi1, Q8IZP0.
Chain of Flag-tagged Abi-1 expressed from pCMV-Flag-Abi1, Q8IZP0 (Q8IZP0 whole entry, looked up): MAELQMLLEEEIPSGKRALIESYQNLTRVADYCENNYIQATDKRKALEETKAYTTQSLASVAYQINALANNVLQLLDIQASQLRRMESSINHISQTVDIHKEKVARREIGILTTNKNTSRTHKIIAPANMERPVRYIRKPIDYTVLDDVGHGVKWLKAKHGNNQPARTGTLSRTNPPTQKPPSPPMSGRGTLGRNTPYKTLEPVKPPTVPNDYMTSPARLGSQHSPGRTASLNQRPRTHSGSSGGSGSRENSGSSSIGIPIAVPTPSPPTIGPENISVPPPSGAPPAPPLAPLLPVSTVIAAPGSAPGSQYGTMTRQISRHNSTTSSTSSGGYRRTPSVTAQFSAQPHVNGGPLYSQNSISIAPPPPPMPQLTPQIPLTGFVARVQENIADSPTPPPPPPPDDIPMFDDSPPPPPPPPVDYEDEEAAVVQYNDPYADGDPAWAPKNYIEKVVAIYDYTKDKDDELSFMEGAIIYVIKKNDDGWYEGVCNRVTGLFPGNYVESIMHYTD

B1: purified GST-ZC1 kinase domain (protein)
chain: MANDSPAKSLVDIDLSSLRDPAGIFELVEVVGNGTYGQVYKGRHVKTGQLAAIKVMDVTEDEEEEIKLEINMLKKYSHHRNIATYYGAFIKKSPPGHDDQLWLVMEFCGAGSITDLVKNTKGNTLKEDWIAYISREILRGLAHLHIHHVIHRDIKGQNVLLTENAEVKLVDFGVSAQLDRTVGRRNTFIGTPYWMAPEVIACDENPDATYDYRSDLWSCGITAIEMAEGAPPLCDMHPMRALFLIPRNPPPRLKSKKWSKKFFSFIEGCLVKNYMQRPSTEQLLKHPFIRDQPNERQVRIQLKDHIDRTRKKRGEKDETEYEYSGSEE
On to B1, for which, in data set [1], the “in vitro phosphorylation (32P-ATP, autoradiography; gel mobility shift)” value was “added purified recombinant ZC1 enzyme induced phosphorylation of p120”.

B2: kinase domain of ZC3 fused to GST (protein)
chain: MGDPAPARSLDDIDLSALRDPAGIFELVEVVGNGTYGQVYKGRHVKTGQLAAIKVMDVTEDEEEEIKQEINMLKKYSHHRNIATYYGAFIKKSPPGNDDQLWLVMEFCGAGSVTDLVKNTKGNALKEDCIAYICREILRGLAHLHAHKVIHRDIKGQNVLLTENAEVKLVDFGVSAQLDRTVGRRNTFIGTPYWMAPEVIACDENPDATYDYRSDIWSLGITAIEMAEGAPPLCDMHPMRALFLIPRNPPPRLKSKKWSKKFIDFIDTCLIKTYLSRPPTEQLLKFPFIRDQPTERQVRIQLKDHIDRSRKKRGEKEETE
Regarding B2, the “in vitro phosphorylation (32P-ATP, autoradiography)” value in the data set with Myelin Basic Protein is “MBP is known to be a good in vitro substrate for ZC3 and is indeed strongly phosphorylated”; in data set [2] it was “A strongly phosphorylated band corresponding to Abi-1 appears in the sample containing immunoprecipitated Abi-1 and GST-ZC3KD”.

The record behind these values is patent publication US20050276757.
